Substrate: CO
Assay: initial rates of FAME formation in PTFE microreactor, GC; non-linear regression
Type: biochemical, Thermomyces lanuginosus
Conditions: transesterification, co-substrate sunflower oil (fatty acids constant; printed 1,488.15 mg/L), 40 °C, 0.01 mol/L potassium phosphate pH 7.4, double-substrate Michaelis-Menten, methanol range printed a

B1: lipase from Thermomyces lanuginosus (Lipolase 100L; Lipolase L100; TlL) (Thermomyces lanuginosus) (protein)
chain: EVSQDLFNQFNLFAQYSAAAYCGKNNDAPAGTNITCTGNACPEVEKADATFLYSFEDSGVGDVTGFLALDNTNKLIVLSFRGSRSIENWIGNLNFDLKEINDICSGCRGHDGFTSSWRSVADTLRQKVEDAVREHPDYRVVFTGHSLGGALATVAGADLRGNGYDIDVFSYGAPRVGNRAFAEFLTVQTGGTLYRITHTNDIVPRLPPREFGYSHSSPEYWIKSGTLVPVTRNDIVKIEGIDATGGNNQPNIPDIPAHLWYFGLIGTCL
notes: commercial liquid preparation Lipolase 100L (Sigma-Aldrich), free enzyme in phosphate buffer; mass 33,400 g/mol used for calculations (cited)
- Km: 7.56 ± 2.77 mg/mL
